The text below walks through data of US20220332804A1 (CSL INNOVATION, published 2022).

What is called Kd is a measure of binding affinity in units of concentration. A higher Kd goes with a looser complex.

Common to all, as to assay: SPR, antibody captured, C2 as analyte;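 note: biacore SPR at 37 °C, anti-C2 mAbs captured via goat anti-human IgG on CM5 chips, double-referenced sensorgrams fit to a 1:1 kinetic or steady-state model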
(Surface plasmon resonance follows binding to a sensor surface in real time, without labels.)

One assay concerns the target T1, human C2 K721A (human, UniProt P06681 21-752).
T1 sequence: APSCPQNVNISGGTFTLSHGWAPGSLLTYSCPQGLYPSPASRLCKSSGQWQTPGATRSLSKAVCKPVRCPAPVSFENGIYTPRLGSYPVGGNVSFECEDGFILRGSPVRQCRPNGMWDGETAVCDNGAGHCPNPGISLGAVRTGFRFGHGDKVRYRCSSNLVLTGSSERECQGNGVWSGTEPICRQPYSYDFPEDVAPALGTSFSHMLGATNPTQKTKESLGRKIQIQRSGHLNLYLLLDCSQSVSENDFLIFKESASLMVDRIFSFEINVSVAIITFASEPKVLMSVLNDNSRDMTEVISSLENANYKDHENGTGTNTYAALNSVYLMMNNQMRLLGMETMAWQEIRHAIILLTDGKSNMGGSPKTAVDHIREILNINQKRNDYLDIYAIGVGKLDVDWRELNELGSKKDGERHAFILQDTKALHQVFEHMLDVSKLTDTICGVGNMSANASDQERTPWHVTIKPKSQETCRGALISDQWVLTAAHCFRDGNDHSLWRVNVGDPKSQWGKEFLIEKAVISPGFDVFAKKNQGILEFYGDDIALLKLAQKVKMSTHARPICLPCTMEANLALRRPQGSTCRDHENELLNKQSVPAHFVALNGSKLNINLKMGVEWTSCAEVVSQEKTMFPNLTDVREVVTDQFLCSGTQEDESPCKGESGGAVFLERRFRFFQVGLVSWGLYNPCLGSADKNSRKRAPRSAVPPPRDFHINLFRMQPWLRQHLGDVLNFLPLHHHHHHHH

The target of the next assay is T2, human C2 K415A (human, UniProt P06681 21-752).
T2 sequence: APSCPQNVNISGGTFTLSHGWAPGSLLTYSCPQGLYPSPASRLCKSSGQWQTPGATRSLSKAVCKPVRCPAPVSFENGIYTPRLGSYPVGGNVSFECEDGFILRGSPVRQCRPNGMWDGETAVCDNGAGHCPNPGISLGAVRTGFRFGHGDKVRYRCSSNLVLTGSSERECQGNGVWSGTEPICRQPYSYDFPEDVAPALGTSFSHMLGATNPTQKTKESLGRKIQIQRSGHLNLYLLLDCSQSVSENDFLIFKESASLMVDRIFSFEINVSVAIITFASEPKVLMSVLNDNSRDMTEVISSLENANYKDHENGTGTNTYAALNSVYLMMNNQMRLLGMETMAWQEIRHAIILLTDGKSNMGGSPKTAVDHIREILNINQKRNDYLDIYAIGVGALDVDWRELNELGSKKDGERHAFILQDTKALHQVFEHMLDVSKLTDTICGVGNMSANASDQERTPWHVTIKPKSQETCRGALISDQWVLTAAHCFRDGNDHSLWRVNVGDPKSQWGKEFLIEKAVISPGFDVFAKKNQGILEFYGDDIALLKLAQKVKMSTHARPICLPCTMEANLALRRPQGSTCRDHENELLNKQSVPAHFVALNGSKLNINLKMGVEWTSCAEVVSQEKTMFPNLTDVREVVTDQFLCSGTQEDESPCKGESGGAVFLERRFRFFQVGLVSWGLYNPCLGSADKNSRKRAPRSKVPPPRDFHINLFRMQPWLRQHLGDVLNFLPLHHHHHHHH

Another assay deals with T3, human C2 D269A (human, UniProt P06681 21-752).
T3 sequence: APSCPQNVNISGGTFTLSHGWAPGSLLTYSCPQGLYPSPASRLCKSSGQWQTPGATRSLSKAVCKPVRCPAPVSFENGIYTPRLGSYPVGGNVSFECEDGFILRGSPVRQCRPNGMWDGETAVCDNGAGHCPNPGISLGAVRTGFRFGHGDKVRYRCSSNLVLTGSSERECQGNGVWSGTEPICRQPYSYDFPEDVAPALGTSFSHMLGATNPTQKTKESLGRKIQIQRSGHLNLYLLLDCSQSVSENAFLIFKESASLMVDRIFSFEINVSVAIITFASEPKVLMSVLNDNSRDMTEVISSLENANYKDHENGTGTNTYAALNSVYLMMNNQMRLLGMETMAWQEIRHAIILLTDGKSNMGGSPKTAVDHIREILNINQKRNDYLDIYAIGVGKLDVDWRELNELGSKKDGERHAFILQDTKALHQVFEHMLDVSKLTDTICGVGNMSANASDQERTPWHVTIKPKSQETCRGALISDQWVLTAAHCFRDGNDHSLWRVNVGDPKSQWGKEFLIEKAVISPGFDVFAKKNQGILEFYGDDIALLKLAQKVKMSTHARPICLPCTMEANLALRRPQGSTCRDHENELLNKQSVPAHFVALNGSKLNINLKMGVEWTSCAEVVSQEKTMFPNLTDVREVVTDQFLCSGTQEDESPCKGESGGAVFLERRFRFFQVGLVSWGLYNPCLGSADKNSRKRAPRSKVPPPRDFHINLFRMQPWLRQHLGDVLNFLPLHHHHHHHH

The target of the next assay is T4, human C2 Y558A (human, UniProt P06681 21-752).
T4 sequence: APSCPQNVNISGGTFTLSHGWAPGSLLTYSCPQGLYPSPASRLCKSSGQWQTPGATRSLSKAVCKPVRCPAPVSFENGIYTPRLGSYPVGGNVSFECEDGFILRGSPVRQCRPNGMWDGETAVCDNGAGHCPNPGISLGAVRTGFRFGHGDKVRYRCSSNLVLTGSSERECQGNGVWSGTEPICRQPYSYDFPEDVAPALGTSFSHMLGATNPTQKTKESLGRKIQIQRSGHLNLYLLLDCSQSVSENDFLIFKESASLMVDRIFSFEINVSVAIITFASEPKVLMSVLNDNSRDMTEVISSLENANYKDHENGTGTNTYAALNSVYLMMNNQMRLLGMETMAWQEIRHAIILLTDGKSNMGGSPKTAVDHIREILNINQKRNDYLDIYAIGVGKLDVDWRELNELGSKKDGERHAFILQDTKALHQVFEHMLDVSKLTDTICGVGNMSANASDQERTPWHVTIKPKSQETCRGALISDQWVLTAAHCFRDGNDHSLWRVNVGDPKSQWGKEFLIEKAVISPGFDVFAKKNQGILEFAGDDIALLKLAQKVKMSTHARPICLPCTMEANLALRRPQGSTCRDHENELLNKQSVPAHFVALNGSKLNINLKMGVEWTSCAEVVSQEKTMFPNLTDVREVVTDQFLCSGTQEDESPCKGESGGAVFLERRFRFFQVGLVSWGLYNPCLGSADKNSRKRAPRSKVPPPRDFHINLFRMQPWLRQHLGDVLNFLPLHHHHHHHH

B1: RF16-226 (antibody, human IgG4 S228P, lambda)
heavy: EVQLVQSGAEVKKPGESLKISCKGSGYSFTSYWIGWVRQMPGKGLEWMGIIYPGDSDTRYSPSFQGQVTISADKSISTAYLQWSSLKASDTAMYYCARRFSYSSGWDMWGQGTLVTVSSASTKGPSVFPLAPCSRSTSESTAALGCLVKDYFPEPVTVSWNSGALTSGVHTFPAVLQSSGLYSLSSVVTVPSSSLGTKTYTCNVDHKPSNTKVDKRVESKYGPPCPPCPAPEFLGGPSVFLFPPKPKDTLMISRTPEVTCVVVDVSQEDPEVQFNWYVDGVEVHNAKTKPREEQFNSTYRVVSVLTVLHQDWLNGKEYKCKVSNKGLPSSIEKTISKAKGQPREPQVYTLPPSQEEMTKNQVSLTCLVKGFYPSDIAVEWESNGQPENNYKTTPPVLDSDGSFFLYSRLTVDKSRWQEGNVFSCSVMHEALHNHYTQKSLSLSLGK
light: SYELTQPPSVSVSPGQTARITCSGDALTSKYVAWYQQKSGLAPLLVIYEDTRRPSGIPAKFSGSSSGSVATLTISGAHGDDEADYYCYSTDASGHQRVFGGGTKLTVLSQPKAAPSVTLFPPSSEELQANKATLVCLISDFYPGAVTVAWKADGSPVKAGVETTKPSKQSNNKYAASSYLSLTPEQWKSHRSYSCQVTHEGSTVEKTVAPTECS
notes: pH-dependent anti-C2 antibody from a phage display library; also called WT
On to B1, for which the Kd was determined as 99.9 nM with human C2 K721A, 11.7 nM with human C2 K415A, 13.1 nM with human C2 D269A and 158 nM in the assay with human C2 Y558A.
